Measured values from publication PMC8545111, “Molecular Basis of the Versatile Regulatory Mechanism of HtrA-Type Protease AlgW from Pseudomonas aeruginosa” (mBio, 2021).
Positions count from the first letter of the chain named. Where “and” joins values, the source holds several entries; their conditions need not be identical. Identical values can stand only once. Non-standard residues stand in square brackets, D forms with d. Residues, ends and D or L forms follow the SMILES beside them. *: point of attachment. pNA = O=[N+]([O-])c1ccc(N*)cc1; 2Abz = Nc1ccccc1C(=O)O

Assays:
[1] = tested on: CC(C)C[C@H](NC(=O)[C@@H](NC(=O)c1ccccc1N)C(C)C)C(=O)N[C@@H](C)C(=O)NCC(=O)Nc1ccc([N+](=O)[O-])cc1; experiment: Fluorogenic Abz-VLAG-pNA cleavage by peptide-activated AlgW and LA loop mutants (200 nM), 25 mM Tris pH 7.5, 150 mM NaCl, 37°C, Michaelis-Menten fit.; format: biochemical
Protocol: Based on the identified MucA and MucB cleavage sites for AlgW ([6], [13]), self-quenching fluorogenic tetrapeptides derived from 134-VLAG-137 of MucA (Abz-VLAG-pNA), 211-TVAW-214 of MucB (Abz-TVAW-pNA), and alanine tetrapeptide (Abz-AAAA-pNA) were synthesized and subjected to real-time measurement of AlgW proteolytic activity in the presence of excessive peptides (10 mM) (Fig. 2A). Compared with the negative-control group (using Abz-AAAA-pNA substrate), both Abz-VLAG-pNA and Abz-TVAW-pNA could be efficiently cleaved by AlgW. […] Considering that MucA is the major target of AlgW, substrate Abz-VLAG-pNA and decapeptide activator SVRDELRWVF were selected to establish a real-time AlgW assay to investigate the kinetic mechanism.
(§1) For the enzyme mechanism of AlgW (30–389) and mutants, two internally quenched fluorescent peptide substrates incorporating the peptidase cleavage site of MucA/MucB, Abz-VLAG-pNA and Abz-TVAW-pNA, were designed and synthesized (GL Biochem Shanghai Ltd., China). In the intact peptide, the fluorescence of the anthraniloyl group is quenched by the P-nitroaniline (Abz is a fluorogenic group, and pNA is a quencher of fluorescence). This quenched fluorescence is liberated upon cleavage of peptide by 200 nM AlgW and mutants (200/3 nM for trimer), resulting in increased fluorescence that can then be monitored fluorometrically. Prior to the assay, all enzyme preparations were incubated with 10 mM agonist peptides (WVF or SVRDELRWVF) for 30 min at room temperature. All assays were placed in a buffer containing 25 mM Tris (pH 7.5) and 150 mM NaCl at 37°C for 1 h, and the final assay volume was 100 μl. The fluorescent degradation products were monitored at 60-s intervals at fluorescence wavelength—λex = 310 nm, λem = 420 nm ([41]). All data points were representative of three independent determinations and were simulated with solid lines with the formula Y = Vmax · X^h/(Km ^h + X^h) or Y = Vmax · X^h/(Khalf^h + X^h) or the Michaelis-Menten formula (Y = Vmax · X/[Km + X]). Substrate versus velocity was used to determine Km and Vmax, and agonists versus velocity was used to determine the half-maximal activation concentration and maximum activation rate of agonists. The fitting and calculation of data were carried out using Prism 7 (GraphPad, CA, USA).

AlgW = experiment: Quenched fluorescent substrate cleavage by peptide/lipid-activated AlgW (substrate versus velocity); format: biochemical, Pseudomonas aeruginosa; conditions: three independent determinations; for Km / Vmax: substrate gradient 3.125-300 μM, Hill fit; for Km / Hill constants: Tris pH 7.5, 37°C; for Hill constants: substrate gradient; for Vmax: 25 mM Tris pH 7.5, 150 mM NaCl, 37°C, 1 h, fluorescence ex 310/em 420 nm
Protocol: FIG 2 Determination of enzyme apparent kinetic parameters of dual-signal-activated AlgW. (A) Activity assay of tripeptide or decapeptide-activated AlgW using the quenched fluorescent substrates Abz-VLAG-pNA, Abz-TVAW-pNA, and Abz-AAAA-pNA. All assays were placed in a buffer containing 25 mM Tris (pH 7.5) and 150 mM NaCl at 37°C for 1 h by adding 100 μM substrate, 200 nM AlgW, and 10 mM agonist peptides (tripeptide WVF or decapeptide SVRDELRWVF). (B) The apparent Michaelis-Menten parameters of AlgW cleavage quenched fluorescent substrates Abz-VLAG-pNA (100 μM) under the condition of peptide or lipid activation. (C) The activity assay of peptide or DDM activated AlgW using the saturated quenched fluorescent substrates Abz-VLAG-pNA. Under the gradient of peptide or DDM concentration,100 μM substrate and 200 nM AlgW were coincubated with or without 400 μM DDM or 10 mM agonist peptides in a buffer containing 25 mM Tris (pH 7.5) and 150 mM NaCl at 37°C for 1 h. The final assay volume of all experiments was 100 μl, and the appearance of fluorescent products was monitored at 60-s intervals at fluorescence wavelengths of λex = 310 nm and λem = 420 nm. All data points were representative of three independent determinations and were simulated with solid lines through the formula of Y = Vmax · X^h/(Km^h + X^h) or Y = Vmax · X^h/(Khalf^h + X^h). The Kcat for the AlgW trimer was calculated by Kcat = Vmax/(Etotal), (Etotal) = 200/3 nM trimers. Error bars represent the standard deviation.
as §1
All experiments were performed in independent biological triplicate, and the results of replicates were consistent. The fitting and calculation of data were carried out with Prism 7 (GraphPad, CA, USA). All the enzyme kinetic data points were representative of three independent determinations and were simulated with solid lines through the formula Y = Vmax · X^h/(Km^h + X^h) or Y = Vmax · X^h/(Khalf^h + X^h) or the Michaelis-Menten formula (Y = Vmax · X/[Km + X]). Substrate versus velocity was used to determine Km and Vmax, and agonists versus velocity was used to determine the half-maximal activation concentration and maximum activation rate of agonists; error bars represent the standard deviation.

AlgW and mutants = experiment: Apparent activation parameters of AlgW and mutants (peptide agonist gradient); format: biochemical, Pseudomonas aeruginosa; conditions: peptide activator (decapeptide) gradient, substrate Abz-VLAG-pNA, Michaelis-Menten fit, means of three independent determinations; for Maximal cleavage activity: Tris pH 7.5, 150 mM NaCl, 37°C; for EC50: read-out: Half-maximal activation concn
Source text: as §1

[2] = decapeptide SVRDELRWVF (10 mM) activated AlgW 200 nM
[3] = decapeptide SVRDELRWVF (10 mM, 30 min RT pre-incubation) activated AlgW 200 nM
[4] = tripeptide WVF (10 mM) activated AlgW 200 nM
[5] = tripeptide WVF (10 mM, 30 min RT pre-incubation) activated AlgW 200 nM

AlgW-K73A (Pseudomonas aeruginosa PAO1; K73A)
Km [1]: 247.9 ± 93.04 µM | Vmax [1]: 188 µM/min | kcat/Km [1]: 189000 ± 39700 M⁻¹ s⁻¹

AlgW-T72A (Pseudomonas aeruginosa PAO1; T72A)
Km [1]: 86.69 ± 15.8 µM | Vmax [1]: 766 µM/min | kcat/Km [1]: 2.21e+06 ± 156000 M⁻¹ s⁻¹

CC(C)C[C@H](NC(=O)[C@@H](NC(=O)c1ccccc1N)C(C)C)C(=O)N[C@@H](C)C(=O)NCC(=O)Nc1ccc([N+](=O)[O-])cc1 [Abz-VLAG-pNA] (H-[2Abz]VLAG-pNA)
Km (AlgW; [2]): 50.1 ± 9.65 µM | Hill constants (AlgW; [2]): ~1 and 0.95 ± 0.09 | Vmax (AlgW; [3]): 187 ± 12.83 µM/min | Km (AlgW; [4]): 14.8 ± 2.16 µM | Hill constants (AlgW; [4]): 1.51 ± 0.29 | Vmax (AlgW; [5]): 81.23 ± 4.02 µM/min

AlgW-TTK (71–73)A (Pseudomonas aeruginosa PAO1; K73A/T71A/T72A)
Km [1]: 125.1 ± 19.87 µM | Vmax [1]: 1430 µM/min | kcat/Km [1]: 2.86e+06 ± 199000 M⁻¹ s⁻¹

AlgW-T71A (Pseudomonas aeruginosa PAO1; T71A)
Km [1]: 48.29 ± 6.19 µM | Vmax [1]: 154 µM/min | kcat/Km [1]: 799000 ± 33200 M⁻¹ s⁻¹

AlgW-ESS (103–105)A (Pseudomonas aeruginosa PAO1; E103A/S104A/S105A)
Km [1]: 123.1 ± 19.44 µM | Vmax [1]: 873 µM/min | kcat/Km [1]: 1.77e+06 ± 122000 M⁻¹ s⁻¹

CC(C)[C@H](NC(=O)[C@@H](NC(=O)c1ccccc1N)[C@@H](C)O)C(=O)N[C@@H](C)C(=O)N[C@@H](Cc1c[nH]c2ccccc12)C(=O)Nc1ccc([N+](=O)[O-])cc1 [Abz-TVAW-pNA] (H-[2Abz]TVAW-pNA)
Km (AlgW; [2]): 26.9 ± 1.48 µM | Hill constants (AlgW; [2]): 1.26 and 1.26 ± 0.07 | Vmax (AlgW; [3]): 319.5 ± 6.42 µM/min | Km (AlgW; [4]): 25.1 ± 1.93 µM | Hill constants (AlgW; [4]): 1.25 and 1.25 ± 0.09 | Vmax (AlgW; [5]): 264.1 ± 7.31 µM/min

B1: AlgW-R374A (protein)
chain: VGLPRQEVHVEQAPLLSRLQEGPVSYANAVSRAAPAVANLYTTKMVSKPSHPLFDDPMFRRFFGDNLPQQKRMESSLGSAVIMSAEGYLLTNNHVTAGADQIIVALRDGRETIAQLVGSDPETDLAVLKIDLKNLPAMTLGRSDGIRTGDVCLAIGNPFGVGQTVTMGIISATGRNQLGLNTYEDFIQTDAAINPGNSGGALVDAAGNLIGINTAIFSKSGGSQGIGFAIPTKLALEVMQSIIEHGQVIRGWLGVEVKALTPELAESLGLGETAGIVVAGVYRDGPAARGGLLPGDVILTIDKQEASDGRRSMNQVARTRPGQKISIVVLRNGQKVNLTAEVGLAPPPAPAPQQKQDGGE
modifications: left off: His6, C-terminal, state not stated
Maximal cleavage activity (AlgW and mutants): 5.45 ± 0.68 µM/min

B2: AlgW-E285A (protein)
chain: B1 chain with E256A, A345R
modifications: left off: His6, C-terminal, state not stated
EC50 (AlgW and mutants): 3840 ± 1090 nM | Maximal cleavage activity (AlgW and mutants): 57.5 ± 4.9 µM/min

B3: AlgW-Y212A (protein)
chain: B1 chain with Y183A, A345R
modifications: left off: His6, C-terminal, state not stated
EC50 (AlgW and mutants): 2120 ± 620 nM | Maximal cleavage activity (AlgW and mutants): 39.46 ± 6.17 µM/min

B4: AlgW-D149A (protein)
chain: B1 chain with D120A, A345R
modifications: left off: His6, C-terminal, state not stated
Maximal cleavage activity (AlgW and mutants): 8.16 ± 0.85 µM/min

B5: AlgW-R279A (protein)
chain: B1 chain with R250A, A345R
modifications: left off: His6, C-terminal, state not stated
EC50 (AlgW and mutants): 2190 ± 990 nM | Maximal cleavage activity (AlgW and mutants): 26.87 ± 3.21 µM/min

B6: AlgW-E151A (protein)
chain: B1 chain with E122A, A345R
modifications: left off: His6, C-terminal, state not stated
EC50 (AlgW and mutants): 2990 ± 560 nM | Maximal cleavage activity (AlgW and mutants): 34.93 ± 1.87 µM/min

B7: AlgW-W281A (protein)
chain: B1 chain with W252A, A345R
modifications: left off: His6, C-terminal, state not stated
EC50 (AlgW and mutants): 1510 ± 720 nM | Maximal cleavage activity (AlgW and mutants): 10.32 ± 1.51 µM/min

B8: AlgW-V284A (protein)
chain: B1 chain with V255A, A345R
modifications: left off: His6, C-terminal, state not stated
EC50 (AlgW and mutants): 3560 ± 730 nM | Maximal cleavage activity (AlgW and mutants): 63.13 ± 3.82 µM/min

B9: AlgW-E266A (protein)
chain: B1 chain with E237A, A345R
modifications: left off: His6, C-terminal, state not stated
EC50 (AlgW and mutants): 1080 ± 500 nM | Maximal cleavage activity (AlgW and mutants): 60.51 ± 5.07 µM/min

B10: AlgW-R347A (protein)
chain: B1 chain with R318A, A345R
modifications: left off: His6, C-terminal, state not stated
EC50 (AlgW and mutants): 1850 ± 990 nM | Maximal cleavage activity (AlgW and mutants): 63.5 ± 8.42 µM/min

B11: AlgW-K287A (protein)
chain: B1 chain with K258A, A345R
modifications: left off: His6, C-terminal, state not stated
EC50 (AlgW and mutants): 6530 ± 1380 nM | Maximal cleavage activity (AlgW and mutants): 49.42 ± 3.59 µM/min

B12: AlgW-L282A (protein)
chain: B1 chain with L253A, A345R
modifications: left off: His6, C-terminal, state not stated
EC50 (AlgW and mutants): 2760 ± 1190 nM | Maximal cleavage activity (AlgW and mutants): 13.24 ± 1.59 µM/min
